Experimental data taken from patent publication EP1165135B1 (City of Hope, dated 2004).
Numbering of substitutions follows the chain as printed. Blank lines part the entries; values can stand above or below the binder they belong to.

Assays:
[1] = target: T1, rat FXR (farnesoid X-activated receptor), full-length (rat, UniProt Q62735 1-469); experiment: electrophoretic mobility shift, in vitro translated FXR + RXR on EcRE probe
T1 construct: mature; Full-length protein cloned into pCMX and translated in vitro for the mobility shift assays; also called bile acid nuclear receptor
T1 sequence (looked up): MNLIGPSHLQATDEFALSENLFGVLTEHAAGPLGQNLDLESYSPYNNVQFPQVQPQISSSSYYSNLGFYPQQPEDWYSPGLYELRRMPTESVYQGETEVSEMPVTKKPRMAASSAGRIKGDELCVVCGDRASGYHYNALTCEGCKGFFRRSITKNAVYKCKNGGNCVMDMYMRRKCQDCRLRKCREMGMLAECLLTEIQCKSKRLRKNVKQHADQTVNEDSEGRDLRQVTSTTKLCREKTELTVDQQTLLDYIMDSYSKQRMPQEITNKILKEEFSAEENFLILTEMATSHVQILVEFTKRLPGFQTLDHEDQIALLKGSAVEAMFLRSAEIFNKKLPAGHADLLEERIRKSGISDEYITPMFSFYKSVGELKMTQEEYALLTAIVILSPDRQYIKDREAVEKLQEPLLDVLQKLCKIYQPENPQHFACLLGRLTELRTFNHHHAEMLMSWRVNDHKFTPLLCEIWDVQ

[2] = target: T2, GST-GRIP1, the three receptor interaction domains of mouse GRIP1 (Arg 625 - Lys 765) fused to … (mouse, UniProt Q61026 625-765); experiment: electrophoretic mobility shift, DR1 probe, LG268 0-1000 nM
T2 construct: Expressed in E. coli and purified on glutathione-sepharose; also called CoA; not shown: glutathione-S-transferase (GST)
T2 sequence (looked up): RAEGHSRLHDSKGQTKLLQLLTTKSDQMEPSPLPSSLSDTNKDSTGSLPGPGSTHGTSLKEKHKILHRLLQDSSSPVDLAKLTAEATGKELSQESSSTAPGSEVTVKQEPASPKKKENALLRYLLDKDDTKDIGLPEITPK

[3] = target: T1, rat FXR (farnesoid X-activated …); experiment: DNA binding as a heterodimer (Figure 5 and data not shown)
[4] = target: T2, GST-GRIP1, the three receptor …; experiment: phosphorimager quantitation of the mobility shift autoradiogram against LG268 concentration (Figure 4)

binding result [1]: binds
B1: human RXRα (9-cis retinoic acid receptor), full-length, wild type (receptor, UniProt P19793 1-462, looked up)
chain: MDTKHFLPLDFSTQVNSSLTSPTGRGSMAAPSLHPSLGPGIGSPGQLHSPISTLSSPINGMGPPFSVISSPMGPHSMSVPTTPTLGFSTGSPQLSSPMNPVSSSEDIKPPLGLNGVLKVPAHPSGNMASFTKHICAICGDRSSGKHYGVYSCEGCKGFFKRTVRKDLTYTCRDNKDCLIDKRQRNRCQYCRYQKCLAMGMKREAVQEERQRGKDRNENEVESTSSANEDMPVERILEAELAVEPKTETYVEANMGLNPSSPNDPVTNICQAADKQLFTLVEWAKRIPHFSELPLDDQVILLRAGWNELLIASFSHRSIAVKDGILLATGLHVHRNSAHSAGVGAIFDRVLTELVSKMRDMQMDKTELGCLRAIVLFNPDSKGLSNPAEVEALREKVYASLEAYCKHKYPEQPGRFAKLLLRLPALRSIGLKCLEHLFFFKLIGDTPIDTFLMEMLEAPHQMT
notes: mature; also called wild-type RXR

fold decrease in potency of coactivator recruitment compared to wild type RXR [2]: 100 fold
binding result [3]: binds
fold higher ligand concentration required for recruitment of coactivator (against wild-type RXR) [4]: ~100 fold
B2: RXRm, human RXRα with the point mutation Asp 322→Pro in the ligand binding domain (receptor, UniProt P19793 1-462, looked up)
chain: B1 chain with D322P
notes: mature; Claim 9 prints Asp332→Pro; also called mutant RXR; RXR mutant
